# B1: GFP-HDAC6 (histone deacetylase 6, WT) (enzyme, UniProt Q9UBN7 1-1215, looked up)
# chain: MTSTGQDSTTTRQRRSRQNPQSPPQDSSVTSKRNIKKGAVPRSIPNLAEVKKKGKMKKLGQAMEEDLIVGLQGMDLNLEAEALAGTGLVLDEQLNEFHCLWDDSFPEGPERLHAIKEQLIQEGLLDRCVSFQARFAEKEELMLVHSLEYIDLMETTQYMNEGELRVLADTYDSVYLHPNSYSCACLASGSVLRLVDAVLGAEIRNGMAIIRPPGHHAQHSLMDGYCMFNHVAVAARYAQQKHRIRRVLIVDWDVHHGQGTQFTFDQDPSVLYFSIHRYEQGRFWPHLKASNWSTTGFGQGQGYTINVPWNQVGMRDADYIAAFLHVLLPVALEFQPQLVLVAAGFDALQGDPKGEMAATPAGFAQLTHLLMGLAGGKLILSLEGGYNLRALAEGVSASLHTLLGDPCPMLESPGAPCRSAQASVSCALEALEPFWEVLVRSTETVERDNMEEDNVEESEEEGPWEPPVLPILTWPVLQSRTGLVYDQNMMNHCNLWDSHHPEVPQRILRIMCRLEELGLAGRCLTLTPRPATEAELLTCHSAEYVGHLRATEKMKTRELHRESSNFDSIYICPSTFACAQLATGAACRLVEAVLSGEVLNGAAVVRPPGHHAEQDAACGFCFFNSVAVAARHAQTISGHALRILIVDWDVHHGNGTQHMFEDDPSVLYVSLHRYDHGTFFPMGDEGASSQIGRAAGTGFTVNVAWNGPRMGDADYLAAWHRLVLPIAYEFNPELVLVSAGFDAARGDPLGGCQVSPEGYAHLTHLLMGLASGRIILILEGGYNLTSISESMAACTRSLLGDPPPLLTLPRPPLSGALASITETIQVHRRYWRSLRVMKVEDREGPSSSKLVTKKAPQPAKPRLAERMTTREKKVLEAGMGKVTSASFGEESTPGQTNSETAVVALTQDQPSEAATGGATLAQTISEAAIGGAMLGQTTSEEAVGGATPDQTTSEETVGGAILDQTTSEDAVGGATLGQTTSEEAVGGATLAQTTSEAAMEGATLDQTTSEEAPGGTELIQTPLASSTDHQTPPTSPVQGTTPQISPSTLIGSLRTLELGSESQGASESQAPGEENLLGEAAGGQDMADSMLMQGSRGLTDQAIFYAVTPLPWCPHLVAVCPIPAAGLDVTQPCGDCGTIQENWVCLSCYQVYCGRYINGHMLQHHGNSGHPLVLSYIDLSAWCYYCQAYVHHQALLDVKNIAHQNKFGEDMPHPH
# notes: histone deacetylase 6 (HDAC6), wild type, expressed from peGFP.N1-HDAC6 WT (Addgene 36188); The pEGFP-N1 vector usually places GFP at the C-terminus of the insert (surmised); The Addgene 36188 insert is recalled to be human HDAC6; also called peGFP.N1-HDAC6 WT; source: HeLa (parental), transfected (Lipofectamine 2000), in fixed cells
# Molecular target: T1, myc-cortactin (UniProt Q60598 1-546)
# T1 construct: cortactin, myc-tagged plasmid, gift from Dr Zhan (Holland Laboratory, American Red Cross); human cortactin would be Q14247; The PLA used an anti-cortactin antibody, which may also detect endogenous human cortactin of HeLa cells; source: HeLa (parental), transfected (Lipofectamine 2000), in fixed cells
# T1 sequence (Q60598 whole entry): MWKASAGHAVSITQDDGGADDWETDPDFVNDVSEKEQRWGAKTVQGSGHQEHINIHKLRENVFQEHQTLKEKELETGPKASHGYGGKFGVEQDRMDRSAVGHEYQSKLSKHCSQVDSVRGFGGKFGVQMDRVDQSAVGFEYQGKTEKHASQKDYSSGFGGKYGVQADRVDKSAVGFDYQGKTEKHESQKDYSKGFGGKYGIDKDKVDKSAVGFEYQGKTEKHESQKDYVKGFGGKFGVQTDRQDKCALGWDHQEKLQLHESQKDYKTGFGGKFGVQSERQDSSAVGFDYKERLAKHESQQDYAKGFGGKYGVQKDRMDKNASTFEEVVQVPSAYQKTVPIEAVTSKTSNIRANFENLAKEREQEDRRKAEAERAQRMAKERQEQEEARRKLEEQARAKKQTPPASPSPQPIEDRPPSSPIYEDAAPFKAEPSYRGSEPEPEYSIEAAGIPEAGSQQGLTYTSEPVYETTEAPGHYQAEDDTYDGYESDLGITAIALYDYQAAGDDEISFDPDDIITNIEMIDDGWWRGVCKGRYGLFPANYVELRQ
# Assay: proximity ligation; Duolink in situ PLA with anti-GFP and anti-cortactin antibodies in fixed HeLa cells cotransfected with GFP-HDAC6 and myc-cortactin; asynchronous or synchronized in mitosis (double thymidine block, release 8-9 h); siCtl or siBAG3; PLA foci per cell counted by confocal microscopy
# Conditions: partners not purified
binder,measurement,value
B1,"fold change of PLA foci per cell, siBAG3 mitotic cells against siCtl mitotic cells",~2 fold

# Source: PMC7795263, “Chaperone-Assisted Mitotic Actin Remodeling by BAG3 and HSPB8 Involves the Deacetylase HDAC6 and Its Substrate Cortactin” (International Journal of Molecular Sciences, 2020)
